Experimental data from patent publication US11752211B2, “Fatty acids and their use in conjugation to biomolecules” (NOVARTIS AG, priority 2014, dated 2023).
Positions of bridges follow the written chain, without caps; N, C: chain ends. No end group written: not given here.

Assays:
[1] = target: T1, MC3R (Homo sapiens, UniProt P41968); assay: MC3 cAMP assay in HEK293/MC3R cells (antagonist protocol); format: cell-based; details: HEK293/MC3R stable cell line, against NDP-α-MSH EC80
T1 construct: expressed in transfected cells; host or cells: HEK293
Procedure: Cells: HEK293/MC3R stable cell line
• I. Aspirate conditioned medium • II. Wash with 2.5 mL of DPBS (Gibco, Cat. No. 14190) • III. Add 2 mL of 0.25% Trypsin-EDTA (Gibco, Cat. No. 25200-056) • IV. Leave the flask for few minutes in incubator, tap the flask a few time to detach cells. • V. Add 10 mL of the complete medium to stop Trypsin-EDTA treatment and mix it well by pipetting softly a few times to re-suspend clumping cells • VI. Transfer 1.5 ml of cells into a new 150 cm flask containing 20 ml of complete media • VII. Transfer the remaining suspension into a 50 mL centrifuge tube • VIII. Spin down at 1200 rpm for 4 mins. Aspirate supernatant • IX. Add 6 mL of the assay buffer to the tube and re-suspend the cells by softly pipetting • X. Transfer 0.5 mL of the suspension into a sample vial for Vi-cell and add another 0.5 ml of PBS. • XI. Count cell number by using a Vi-cell *Record cell density and viability every time • i. Plate cells at 4K/well in 10 ul/well of assay buffer containing IBMX. • ii. Leave the plate in incubator for ˜30 mins before assay is started on suspension cells.
Two step cAMP protocol is followed for cAMP determination.
• I. To 10 ul/well of cells add 5 ul of AgRP prepared at 3× in assay buffer only to antagonist wells. • II. Add 5 ul of buffer to positive control wells (wells that will have NDP-α-MSH). • III. Incubate the plate at 37° C. for ˜20 mins. • IV. […]

[2] = In vivo plasma stability of AgRP conjugates, 10 nanomoles per rat iv, AgRP ELISA; details: male Sprague-Dawley rats, 10 nanomoles per rat intravenously
Procedure: 10 nanomoles of conjugate was dissolved in 300 μL of PBS (Phosphate buffered saline) to form Dosing solution. Dosing solution ([…]) was administered intravenously to male Sprague-Dawley rats via lateral tail vein (corresponding to a dose 10 nanomoles per rat). Blood was collected via tail snip at prescribed times after dosing and immediately placed on wet ice. These samples were centrifuged at 4C, with supernatant plasma transferred to a fresh tube for analysis.
Standard curve preparation: The two fatty acid conjugates of examples 27A and 27B and one mature human AgRP peptide were used to make standards. Intermediate stock solutions of each AgRP were prepared by diluting the stock labeled peptides in ELISA sample diluent with casein to 100 ug/ml. For assay, intermediates were diluted to a top standard concentration of 2500 pg/mL and then diluted 2-fold serially to 16 points including a zero dose standard in ELISA sample diluent with bovine serum albumin (BSA). Sample dilution: Plasma samples were diluted 10-fold and then 5-fold serially out to 31,250-fold in ELISA sample diluent with BSA. […] Plates were washed a final time and a chemiluminescent substrate was added to all wells and plates were read immediately on a Spectramx M5 for light output. Data analysis: Raw data was organized and analyzed for basic PK parameters. […]

[3] = target: T2, RXFP1 (Homo sapiens, UniProt Q9HBX9); assay: Serelaxin in vitro activity in presence of bovine serum albumin and human serum #2: cAMP in RXFP1-HEK293 cells; format: cell-based
T2 construct: expressed in transfected cells; host or cells: HEK293
T2 sequence (Q9HBX9 1-757): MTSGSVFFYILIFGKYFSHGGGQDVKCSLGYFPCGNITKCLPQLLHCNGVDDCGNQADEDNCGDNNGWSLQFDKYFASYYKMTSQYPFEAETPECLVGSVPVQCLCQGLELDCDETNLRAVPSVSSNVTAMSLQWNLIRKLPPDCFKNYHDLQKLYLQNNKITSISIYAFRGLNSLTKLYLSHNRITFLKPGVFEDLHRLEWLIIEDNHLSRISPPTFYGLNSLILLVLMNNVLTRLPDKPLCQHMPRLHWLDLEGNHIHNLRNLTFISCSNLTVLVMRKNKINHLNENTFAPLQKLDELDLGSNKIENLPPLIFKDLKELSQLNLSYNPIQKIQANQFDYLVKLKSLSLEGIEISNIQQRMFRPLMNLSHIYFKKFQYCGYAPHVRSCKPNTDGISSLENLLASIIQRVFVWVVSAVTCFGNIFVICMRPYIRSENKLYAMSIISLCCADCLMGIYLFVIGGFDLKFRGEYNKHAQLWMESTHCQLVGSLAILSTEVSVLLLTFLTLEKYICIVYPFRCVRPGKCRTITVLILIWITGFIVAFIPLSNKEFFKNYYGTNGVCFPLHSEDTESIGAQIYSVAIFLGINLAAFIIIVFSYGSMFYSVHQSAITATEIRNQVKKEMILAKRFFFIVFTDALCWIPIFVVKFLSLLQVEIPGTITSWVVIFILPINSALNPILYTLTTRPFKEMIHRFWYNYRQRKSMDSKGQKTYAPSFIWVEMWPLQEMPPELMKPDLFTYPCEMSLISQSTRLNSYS
Procedure: In Vitro Activity in Presence of Bovine Serum Albumin and Human Serum #2: Materials: DMEM: F12 media (Gibco, cat #11320) IBMX (Sigma, cat #15879) 384 solid bottom white plates (Greiner bio-one, cat #781945) 20,000 dynamic-2 cAMP kit (Cisbio, cat #62AM4PEC) Adenosine 3′, 5′-cyclic monophosphate (Sigma, cat #A9501) Matrix-plate mate plus (used for adding 5 μl of assays reagents) PBS-Gibco (cat #10010-023) 1M HEPES Gibco (cat-15630-080) 1×HBSS Gibco (cat-14175-095) Assay buffer—1×HBSS+10 mM HEPES Bovine serum albumin cat #A2153 (Sigma-Aldrich) Sigma Aldrich—H4522 (Human serum) Conditions:
10% Human Serum (Sigma aldrich—H4522)
• Serelaxin 10 ul stock dissolved in 190 ul of PBS, final concentration is 40 μM, which are diluted 3× fold by transferring 30 ul to 60 ul of the assay buffer 11 point curve, (A2-A12) 12th is zero. Serelaxin-FA conjugate: Stock is (287.79 uM) i.e 2.61 mg/ml MW is 9069 Daltons • Serelaxin 27.798 ul stock dissolved in 172.2 ul of PBS, final concentration is 40 μM, which are diluted 3× fold by transferring 30 ul to 60 ul of the assay buffer 11 point curve, (A2-A12) 12th is zero. BSA Stock Solution Preparation: For 666.66 uM BSA: Made assay buffer 30 mls by dissolving 1.32 gms of BSA For 600 uM BSA: Made assay buffer 30 ms by dissolving 1.18 gms of BSA No BSA, has only assay buffer Human Serum For 4.44% HS: 1.34 mls in 28.66 mls of assay buffer For 4% HS: 1.2 mls in 28.8 mls of assay buffer For 11.11% HS: 3.33 mls in 26.67 mls of assay buffer For 10% HS: 3 mls in 27 mls of assay buffer Procedure: Day 1: Seed 8,000 cells/well of RXFP1-HEK293 and HEK293 (parental) cells in 10 μl/well volume in basal DMEM:F12 media-on solid bottom plate. Incubate cells overnight at 37° C./5% CO2. Day 2: • 1. Wash cells 2× times with 50 ul of assay buffer and were tapped gently on paper towel to get rid of assay buffer after first and second wash • 2. Cells were pretreated with 15 ul of media with IBMX (666.66 uM) containing respective media (600 uM of BSA, 4% BSA, 10% Human serum and assay buffer alone) for 30 minutes at 37° C. • 3. Serially dilute cpds 3× times, 11 point curve—transferring 15 ul of cpds from previous well to subsequent well with 30 ul of PBS, well 11 is PBS only • 4. Dilute (1:10) in assay buffer from step 3 (i.e is 10 ul to 90 ul of assay buffer) • 5. Dilute again from step 4 (1:10) in respective media (666.66 μM of BSA &4.44% & 11.11% Human serum and assay buffer) final con of the BSA is 600 μM and Human serum is 4 & 10% • 6. (*Incubate the cpds for 1 hr at RT in their respective media, before adding to cells) • 7. […] Read FRET on Envision • 12. cAMP std curves were made in their respective media. cAMP Standard Curve Dilutions:
The initial stock of cAMP standard is 1120000 nM • 1. […] Read on HTRF—Envision Analysis: […]

[4] = target: T2, RXFP1; assay: Serelaxin in vitro activity assay #1: cAMP HTRF in RXFP1-HEK293 cells; format: cell-based; details: DMEM:F12 media
Procedure: Protocol: Day 1: Seeded RXFP1-HEK293/parental HEK293 cells 8k in 10 μl of DMEM: F12 media in solid bottom PDL coated white plates Day 2: Ran assay with the compound Agonist Mode (Overview): • Cells in 10 μl of DMEM:F12 media @37° C. O/N • 5 μl of 2000 μM (4×) of IBMX to the cells for 30 min at 37° C. • 5 μl of 4× compound/Serelaxin to the above for 30 min at 37° C. […]
Read FRET signal—Envision 665 nm/620 nm […]

[5] = Pharmacokinetics (PK) assay of hPIP, single IV administration; format: in vivo; details: DIO mice
Procedure: Plasma exposure of hPIP were measured in DIO mice following a single IV administration. Briefly, freely-fed DIO mice (n=2) were administered with hPIP (native and FA-conjugated PIP; solution in PBS; administered at 4 ml/kg body weight) once intravenuously (IV). Blood samples were collected and plasma isolated at 0.25, 0.5, 1, 3, 7, 24 and 48 hrs post-dose by and in-house ELISA assay (protocol shown below).

[6] = test system: high fat diet-induced obese (DIO) mice; assay: Glucose-stimulated insulin secretion (GSIS) assay; format: in vivo; details: single IV dose 45 min before oral glucose 3 g/kg
Procedure: GSIS test was performed as a measurement of in vivo pancreatic beta cell function following recombinant human Prolactin-inducible Protein (hPIP) in high fat diet-induced obese (DIO) mice. Briefly, mice (m=5-7/group) were fasted overnight (5:00 PM-8:00 AM) and on the test day body weight and blood glucose (BG; determined with Embrace glucose meters) which was designated as baseline timepoint. Next, mice were administered with hPIP (native and FA-conjugated PIP; solution in PBS; administered at 4 ml/kg body weight) or a vehicle-control (PBS) once intravenuously (IV). Forty-five min following the hPIP administration, all mice were dosed with oral glucose (3 g/kg dextrose; solution in PBS; administered at 4 ml/kg body weight). Blood glucose was measured immediately before the glucose load (designated as 0 min time point) and at 15 and 30 min post-glucose. Blood samples were collected for plasma isolation and measurement of plasma insulin were carried out at 0, 15 and 30 min post-glucose.

T1 sequence (P41968 whole entry, species assumed): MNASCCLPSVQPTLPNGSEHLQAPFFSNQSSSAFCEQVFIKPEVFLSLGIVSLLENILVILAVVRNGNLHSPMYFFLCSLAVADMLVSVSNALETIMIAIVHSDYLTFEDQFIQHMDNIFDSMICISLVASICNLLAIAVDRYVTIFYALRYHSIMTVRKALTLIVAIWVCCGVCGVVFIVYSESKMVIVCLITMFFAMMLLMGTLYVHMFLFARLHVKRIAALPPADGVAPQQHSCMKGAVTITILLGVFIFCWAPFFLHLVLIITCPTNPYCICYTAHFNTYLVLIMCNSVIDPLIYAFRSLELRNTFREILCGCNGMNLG

With “AgRP: mature human AgRP peptide (SSRRCVRLHESCLGQQVPCCDPCATCYCRFFNAFCYCRKLGTAMNPCSRT; disulfide 12-26, 19-37, 5-20, 23-47, 28-35)” the EC50 [1] was 12 nM and the “In vivo Plasma stability t½” value [2] was 4.4 h.

In the case of “Serelaxin: Recombinant 1-chain human relaxin (DSWMEEVIKLCGRELVRAQIAICGMSTWSCFRALSRKTCGVHCCKNALASYLE; Serelaxin Sequence)”, the EC50 ([3]; 0% Plasma) is reported as 8 nM, the EC50 ([3]; 4% Plasma) is reported as 0.3 nM and the EC50 ([3]; 10% Plasma) is reported as 0.4 nM. For the same molecule, the EC50 ([3]; 600 uL BSA) was 0.7 nM and the EC50 [4] was 1.12 nM.

B1: Unconjugated PIP: recombinant human Prolactin-inducible Protein (hPIP), native (protein, UniProt P12273 29-146, looked up)
Prolactin-inducible protein: QDNTRKIIIKNFDIPKSVRPNDEVTAVLAVQTELKECMVVKTYLISSIPLQGAFNYKYTACLCDDNPKTFYWDFYTNRTVQIAAVVDVIRELGICPDDAAVIPIKNNRFYTIEILKVE
In the case of B1, the Cmax [5] is reported as 220 nM, the MRT [5] is reported as 12.0 h and the “Plasma Insulin AUCB (ng/mL*min) compared to the vehicle” value [6] is reported as “+29%”.
